Test system: MS2 coat protein
Test: apparent KD of MS2 coat protein; designed switch direction (-1 OFF switch, 1 ON switch): -1; higher = weaker reporter binding
Summary of the method: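 An oligonucleotide input, 200 uM small-molecule ligand, or no input was present during titration of SNAP-549-labelled MS2 coat protein, which was doubled from 0.7 or 1.5 nM to 3 µM. Designed RNA switches had been transcribed on Illumina chips by stalled E. coli RNA polymerase. Apparent KD per design is the median over clusters of curves fitted to normalised cluster fluorescence.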

[1] = Eterna round: R95, input ligand: FMN 200 uM
[2] = Eterna round: R95, input ligand: microRNA oligo, concentration not stated
[3] = Eterna round: R95, input ligand: none
[4] = input ligand: microRNA oligo, concentration not stated

Sequence | apparent KD of MS2 coat protein (input ligand: FMN 200 uM) [nM] | apparent KD of MS2 coat protein (input ligand: none) [nM] | apparent KD of MS2 coat protein [1] [nM] | apparent KD of MS2 coat protein [2] [nM] | apparent KD of MS2 coat protein [3] [nM] | apparent KD of MS2 coat protein [4] [nM]
GCUUGCUUUUUGGUUUUCAACAUGAGGAUCACCCAUGUUCGUCUUGUGCUCGGGCUUGGGCGGUGUCCGGGUUUGGG [A 9%, less GC] (Eterna round: R97, puzzle: Sensor, turn-off variant 1) | 55.8 | 60.6 |  |  |  | 
GCUUGGCGAGGAUAUACAUGAGGAUCACCCAUGUGAGAAGAAUAAGUGAGGAAGAAAAGUAGAAGGCGCUGAGG [Mat - Exclusion 3 - Mod of Salish D62] (puzzle: Exclusion 3) |  |  | 56.1 | 30.4 | 37.6 | 
GCUUGUAGAGGAUAUACAAGGGCCCACGCGGCGAGAGCCGCACAUGAGGAUCACCCAUGUAGAAGGCUACUAUA [JL-ex2-4.23 ViennaUCT mod] (Eterna round: R97, puzzle: Exclusion 2) | 125 | 363 |  |  |  | 
GCUUGUGGGCAAGGAUAUCCUACGUUGUUCUGGUUCGUGUCUGUCACAUGAGGAUCACCCAUGUGGGAGAAGGUGCCUUUGGUG [Design 62] (Eterna round: R96, puzzle: Exclusion NG 2) | 23.2 | 15.6 |  |  |  | 9.2
GGAAAACAUGAGGAUCACCCAUGUAAGGAUAUGCAAAAGGAUAUAGAAGGAAAAUAAAGCAGAAGGUACAAAGG [salish99-ex1_r3_098] (puzzle: Exclusion 1) |  |  | 126 | 23.7 | 127 | 
GGAAAGCAAGGAUAUACAAGGAGAAGGAGGAAAGUAAAAGGACAUGAGGAUCACCCAUGUAGAAGGUGCGAGAG [JR_Exclu2_Sub039] (puzzle: Exclusion 2) |  |  | 31.9 | 29 | 43.5 | 
GGAAAGUGAGGAUAUGGUAAUUUAAUUAUUAAUUAAUUAAUCCAGAAGGCACAUGAGGAUCACCCAUGUAAAUG [Mat - Exclusion 4 - D91] (puzzle: Exclusion 4) |  |  |  | 30 |  | 
GGAAGACAUGAGGAUCACCCAUGUAAGGAUAUCGAAGGUAUGAGAGGAAAGAGGUUAACGAGAAGGUACAGGUG [JR_Exclu1_Sub099] (puzzle: Exclusion 1) |  |  | 107 | 82 | 102 | 
GGAAGAGAGAUAGGAUAUUAAAGGAAGAUGGUGAGAGAGACAUGAGGAUCACCCAUGUAAAGGAAUAAGAAGGGUCAGAAGGAA [EXNG2 V2 g] (Eterna round: R96, puzzle: Exclusion NG 2) | 137 | 184 |  |  |  | 104
GGAAGGAGUGUCAGGAUAUCCGGAGGGAAACCUCCGGAGAAGGGACAUGAGGAUCACCCAUGUAGAGGAAGGAG [AK-MS2ROC-r4-Bmoexclusion4-9] (Eterna round: R97, puzzle: Brourd's mod of Exclusion 4) | 561 | 441 |  |  |  | 
GGAAUGUAAGGAUAUCCGAAAGGAAGGAGAGGGAGAGGGAAGGAGAAGGUACAUGAGGAUCACCCAUGUAAGGG [AK-MS2ROC-r4-exclusion4-9] (Eterna round: R97, puzzle: Exclusion 4) | 88.5 | 69.2 |  |  |  | 
GGACCUGGAGGAUAUAGAGCACUGAACAUGAGGAUCACCCAUGUGACCGGUGUAGUGCACCUAGAAGGCCGCGGCA [Eternabot (L1) Solution 40] (Eterna round: R97, puzzle: Exclusion 5) | 129 | 65.4 |  |  |  | 
GGAGAGGGAGGAUAUGCGCCAACAAACAUGAGGAUCACCCAUGUGGUGCUCCAAGAAAGGGUAGAAGGCCCUCUCC [Default title] (puzzle: Exclusion 5) |  |  | 619 | 275 | 295 | 
GGAGCUGGAGGAUAUACAAGAUCGAAAGAUCAAAGAUCCGUACAUGAGGAUCACCCAUGUAGAAGGCCAGCUCC (Eterna round: R97, puzzle: Exclusion 2) | 763 | 40.4 |  |  |  | 
GGAGGACGAGCAGGAUAUUUUCACAUGAGGAUCACCCAUGUGUACUCAGGGUAAUCCUCCGCCGAAAAGAAGGGUUCGGAAGAA [JL ViennaUCT Socedi mod 1] (Eterna round: R96, puzzle: Exclusion NG 2) | 46.7 | 50.8 |  |  |  | 33.2
GGAGUGUAAGGAUAUAAGACAAGGGCUAUCGGAGCCCAAAUUUAGAAGGUACAUGAGGAUCACCCAUGUGAUGA [Eternabot (L1) Solution 5] (Eterna round: R97, puzzle: Exclusion 4) | 124 | 27.2 |  |  |  | 
GGAUAAAACUGAGGAUAUACGUAUCGCUAGCGAGUAGAAGGCAGACAUGAGGAUCACCCAUGUGAGUUCUCGAUAAGAAACACG [Prohibition 60 - Jieux - Exclusion NG 1] (Eterna round: R96, puzzle: Exclusion NG 1) | 163 | 53.3 |  |  |  | 35.5

Sequence | apparent KD of MS2 coat protein (input ligand: FMN 200 uM) [nM] | apparent KD of MS2 coat protein (input ligand: none) [nM] | apparent KD of MS2 coat protein [1] [nM] | apparent KD of MS2 coat protein [2] [nM] | apparent KD of MS2 coat protein [3] [nM] | apparent KD of MS2 coat protein [4] [nM]
GGAUAAAAGACAGGAUAUACGCACCACUAACGAGUAGAAGGGUCACAUGAGGAUCACCCAUGUGAGUUCUCAAUAAGAAACACG [Prohibition 67 - Jieux - Exclusion NG 1] (Eterna round: R96, puzzle: Exclusion NG 1) | 14.2 | 17.3 |  |  |  | 16.9
GGAUAAAAUCGAGGAUAUACGCACCACUAACGAGUAGAAGGCGAACAUGAGGAUCACCCAUGUGAGUUCUCAAUAAGAAACACG [Prohibition 68 - Jieux - Exclusion NG 1] (Eterna round: R96, puzzle: Exclusion NG 1) | 40.5 | 35.1 |  |  |  | 23.9
GGAUCACAUGUGAGGAUAUGCAGGUCCUUGGAUCUGCAGAAGGCACAUGAGGAUCACCCAUGUGAUCAAGAUCC [Mat - Exclusion 4 - Eli Mod - D49] (Eterna round: R97, puzzle: Brourd's mod of Exclusion 4) | 47.4 | 61.2 |  |  |  | 
GGAUCGAGUGUGAGGAUAUGCUGGUCCUAAGAUCAGCAGAAGGCACAUGAGGAUCACCCAUGUGAAAACGGUCC [Mat - Exclusion 4 - JL Mod - D71] (Eterna round: R96, puzzle: Brourd's mod of Exclusion 4) | 183 | 29.3 |  |  |  | 24.2
GGAUCGAGUGUGAGGAUAUGCUGGUCCUAAGAUCAGCAGAAGGCACAUGAGGAUCACCCAUGUGAAAACGGUCC [Mat - Exclusion 4 - JL Mod - D71] (puzzle: Brourd's mod of Exclusion 4) |  |  |  | 23.5 |  | 
GGAUUCCAGUGAGGAUAUCCAAAUAAAAGCCAUGGAGAAGGCACAUGAGGAUCACCCAUGUAGGGCAAUAGCAGCGACCGCUGC [Usxeer] (Eterna round: R96, puzzle: Exclusion NG 1) | 60.8 | 35.1 |  |  |  | 20.7
GGAUUUACUGAGGAUAUUGCAUCACCCGACUGAUAAGAAGGCAGAACAUGAGGAUCACCCAUGUGGGUAGUCAA [Bingo-Bango-3] (Eterna round: R97, puzzle: Exclusion 6) | 29.6 | 19.5 |  |  |  | 
GGAUUUACUGAGGAUAUUGCAUCACCCGAUUGAUAAGAAGGCAGAACAUGAGGAUCACCCAUGUGGGUAGUCAA [Bingo-Bango-2] (Eterna round: R97, puzzle: Exclusion 6) | 80.2 | 39.3 |  |  |  | 
GGCAUCGGAGGAUAUACUUAUGGUGAUGUUCGAAGCUUUCUACUUGAGGAUCACCCAAGUAGAAGGCCGAUGCC [jl-ex2.4.78 ViennaUCT mod] (Eterna round: R97, puzzle: Exclusion 2) | 5.28 | 17.4 |  |  |  | 
GGCGAGCGAGGAUAUACAGGGUAUCCGACUCGCCGCGGGCGACAUGAGGAUCACCCAUGUAGAAGGCGCACGCG [EX2 A.18] (Eterna round: R97, puzzle: Exclusion 2) | 13.9 | 17.6 |  |  |  | 
GGCGCACAUGAGGAUCACCCAUGUGAGGAUAUGUGGCGAUCGUCGAUAGACGAUAGCCACAGAAGGCACAUGCC [Mat - Exclusion 1 - Eli Mod - D20] (Eterna round: R97, puzzle: Exclusion 1) | 74 | 33.3 |  |  |  | 
GGCUAGUGAGGAUAUACGUGCAGUCCUCAGUCGCCAGUCGGACAUGAGGAUCACCCAUGUAGAAGGUAUCGGCA [Beesraat] (puzzle: Exclusion 2) |  |  |  | 30.2 |  | 
GGCUGACGCGGUAGGCCUUACAUGAGGAUCACCCAUGUCGAUGCCAUUCCAAAACACGGGUUUGAGGUUCGUCAUUG [Eternabot (L1) Solution 46] (Eterna round: R97, puzzle: Sensor, turn-off variant 1) | 99.7 | 100 |  |  |  | 
GGGAAACAUGAGGAUCACCCAUGUCAGGAUAUCCGCUUUAAUUAAAUAAAUAAAUAAUGGAGAAGGGACAGCCC [-12.9, -10.5 kcal, 39% A] (Eterna round: R97, puzzle: Exclusion 1) | 33.6 | 33.7 |  |  |  | 
GGGAACCGAGGAUAUCAGUACACGCACAUGAGGAUCACCCAUGUGCUCCUCGGUGCUGUCUGAGAAGGCGGUGAGA [Raonxe] (Eterna round: R97, puzzle: Exclusion 5) | 26.9 | 17.6 |  |  |  | 
GGGAAGAACCAACAAGCAAACAUGAGGAUCACCCAUGUAGUAGGAGGAAGAAAGGUGAUUUAGAAAGCUCGACUUAU [AK-miRNA-r3-6] (Eterna round: R97, puzzle: Sensor, turn-off variant 1) | 159 | 202 |  |  |  | 
